This note sets out measurements from patent US10156559B2, “Lipocalin fusion partners” (Fred Hutchinson Cancer Research Center, priority 2012, dated 2018).

A short description of this data set: SDS PAGE analysis of Scn fusion protein before and after cleavage. The settings on record: fusion protein cleaved from Scn, expressed in mammalian cell culture. The class given is physicochemical. From the text:
The cloned knottin or library was cotransfected into HEK293 cells and media was collected as described (“Daedalus: A Robust, Turnkey Platform for Rapid Production of Decigram Quantities of Active Recombinant Proteins in Human Cell Lines Using Novel Lentiviral Vectors.” Bandaranayake A. D., et al., Nucleic Acids Res. (2011) 39(21):e143). Fusion protein was isolated using nickel IMAC and cleaved with recombinant TEV protease. Excess siderocalin was removed via size exclusion chromatography, a process which also allowed the buffer to be switched to 10 mM ammonium formate. The knottin containing fractions were then lyophilized.
FIG. 19 depicts the expression of a Scn fusion with a cytoplasmic viral protein Adv2 and the corresponding SDS PAGE analysis according to one aspect of the present disclosure. […] Additionally this fusion protein has further utility because it can be used to raise antibodies against the viral antigen in rats, mice or rabbits using the corresponding Scn ortholog.
FIG. 21 depicts the expression of a Scn fusion with a knottin protein, Imperatoxin, and the corresponding SDS PAGE analysis according to one aspect of the present disclosure. […] Additionally, this fusion protein has further utility because it can be used to raise antibodies against the […] in rats, mice or rabbits using the corresponding Scn ortholog.

B1: HMOX1: cytoplasmic enzyme, HMOX1, expressed as a Scn fusion and cleaved from Scn (protein, UniProt P09601 1-288, looked up)
Heme oxygenase 1: MERPQPDSMPQDLSEALKEATKEVHTQAENAEFMRNFQKGQVTRDGFKLVMASLYHIYVALEEEIERNKESPVFAPVYFPEELHRKAALEQDLAFWYGPRWQEVIPYTPAMQRYVKRLHEVGRTEPELLVAHAYTRYLGDLSGGQVLKKIAQKALDLPSSGEGLAFFTFPNIASATKFKQLYRSRMNSLEMTPAVRQRVIEEAKTAFLLNIQLFEELQELLTHDTKDQSPSRAPGLRQRASNKVQDSAPVETPRGKPPLNTRSQAPLLRWVLTLSFLVATVAVGLYAM
modifications: expressed as Scn fusion, cleaved
On to B1, for which the “stability of the protein after separation from Scn” value is “stable even after separation from Scn”.

B2: Adv2: cytoplasmic viral protein Adv2 expressed as a Scn fusion and cleaved from Scn (protein, UniProt P68978 18-159, looked up)
Early E3 18.5 kDa glycoprotein: AKKVEFKEPACNVTFKSEANECTTLIKCTTEHEKLIIRHKDKIGKYAVYAIWQPGDTNDYNVTVFQGENRKTFMYKFPFYEMCDITMYMSKQYKLWPPQKCLENTGTFCSTALLITALALVCTLLYLKYKSRRSFIDEKKMP
modifications: expressed as Scn fusion, cleaved
In the case of B2, the “stability of the protein after separation from Scn” value was “stable even after separation from Scn”.
